# Results published in the DeepSol protein solubility set.
# Test: soluble on expression in E. coli; label from the status in PepcDB or PDB records
row,Sequence,soluble on expression in E. coli
1,MGSDKIHHHHHHMNNTPTPPKVLLLLTSLHGGGAERVAVHLLNRLQGRFDMRMGLLRASGPYLDQADRSRLIVAPEGETHFNFDGPNSANYRPGKLVGSAVRAPLAFRRMIRETQPDVVLSFLKGTNLLVWLALMNMGRARPRWIAREGNNVLAVIREEAPNGAVARASRDLTAKAYRRADAVLANSTDMAAGLITDLDLDPAKMRMINNPIDIDGIREAAGESLPGAPNRPFILTAGRLEYQKAHEVLLRAFARSEAWRTHALVILGKGSRLGELHRLAAQLGIGEYVRFIGFVPNPYAWMARADLFVLPSRWEGFPTVAAEAMACGTPLLLTDCRFGARDIVEPGVTGELVPVNDEAALATEIAALLASPERRSALARAGREKVERFRLERMLEAYAALFDEQFAARRR,not soluble
2,MYYERPVFDIVDTWEIREREVLKPVLSVAEEDYCYFVQNTVASAQRSWVDLVANLFNSPDSDIDDALNRFADAPCLHGPTLEPMNLILKGSPMYVYCSFEEMRSCATKRFYEGISNRGVVICTVPPYAEGVTRDDMSVWQNQACVNTCSGKNDLDAYIAFLPTSSLQESSYWHTKNGIYSFLAPSQTDAFCCEILCVGRALFEDRSRKEKLRNCLLKLLNYRLKLLFAAALEHHHHHH,not soluble
3,MTQQEYQNRRQALLAKMAPGSAAIIFAAPEATRSADSEYPYRQNSDFSYLTGFNEPEAVLILVKSDETHNHSVLFNRIRDLTAEIWFGRRLGQEAAPTKLAVDRALPFDEINEQLYLLLNRLDVIYHAQGQYAYADNIVFAALEKLRHGFRKNLRAPATLTDWRPWLHEMRLFKSAEEIAVLRRAGEISALAHTRAMEKCRPGMFEYQLEGEILHEFTRHGARYPAYNTIVGGGENGCILHYTENECELRDGDLVLIDAGCEYRGYAGDITRTFPVNGKFTPAQRAVYDIVLAAINKSLTLFRPGTSIREVTEEVVRIMVVGLVELGILKGDIEQLIAEQAHRPFFMHGLSHWLGMDVHDVGDYGSSDRGRILEPGMVLTVEPGLYIAPDADVPPQYRGIGIRIEDDIVITATGNENLTASVVKDPDDIEALMALNH,not soluble
4,MNMNQTTSPALSQVETAIRVPAGNFAKYNYYSVFDIVRQTRKQFINANMSWPGSRGGKTWDLAMGQAQYIRCMFRENQLTRRVRGTLQQTPDNGTNLSSSAVGGIQGQAERRPDLATLMVVNDAINQQIPTLLPYHFPHDQVELSLLNTDVSLEDIISESSIDWPWFLSNSLTGDNSNYAMELASRLSPEQQTLPTEPDNSTATDLTSFYQTNLGLKTADYTPFEALNTFARQLAITVPPGGTVDCGYSACQPAVLEHHHHHH,not soluble
5,MAHHHHHHMQEFSTYSLFSRKNETVSGMDENFDNHPENYFKEEYYYDENDDMEVKVKKIGVTLKKFEPLKNGNVSETIKLIHLGNKDKKHIEAINNDIQIIKQELQAIYNELMNYTNGNKNIQQIFQQNILENDVLNQETERQTRSRGGG,soluble
6,MDFSGKNVWVTGAGKGIGYATALAFVEAGAKVTGFDQAFTQEQYPFATEVMDVADAAQVAQVCQRLLAETERLDALVNAAGILRMGATDQLSKEDWQQTFAVNVGGAFNLFQQTMNQFRRQRGGAIVTVASDAAHTPRIGMSAYGASKAALKSLALSVGLELAGSGVRCNVVSPGSTDTDMQRTLWVSDDAEEQRIRGFGEQFKLGIPLGKIARPQEIANTILFLASDLASHITLQDIVVDGGSTLGA,soluble
7,MGSDKIHHHHHHMINQINFKTSHGGSREEGYIDFSASVNPYPPEWTDEMFERAKKISTFYPYYEKLEEELSDLIGEPITITAGITEALYLLGVWMRGRKVIIPKHTYGEYERISRMFGGRVIKGPNDPGKLAEFVERNSFVFFCNPNNPDGKFYREKEMKPLLDAIQDTNSILILDEAFIDFVKKPESPEGENIIRLRTFTKSYGLPGVRVGYVIGFVDAFRSVRMPWSIGSTGVAFLEFLLKDNFKHLRKTLPLIWKEKERIEKELKVKSDANFFIMKVREGIIEKLKENGILVRDCKSFGLPGYIRFSVRRREENDKLINILRKTLNT,not soluble
8,MPGRFELKPTLAKIWHAPDNFRIMEPLPPMHRRGIIIAAIVLVIGFLLPASETSDSPVVTREAQLDLQSQSQPPTEAQLQAQLVAPQNDPDQVAPVAPEPIQEGQPEEQNQPQTQPFQQDSGIGQQWRSYRVESGKTLAQLFRDHGLPPTDVYAMAQVEGAGKPLSNLKNGQMIKIRQNASGVVTGLTIDGDNGQQVLFTRQPDGSFIRAQ,not soluble
9,GSFTEGWVRFSPGPNAAAYLTLENPGDLPLRLVGARTPVAERVELHETFMREVEGKKVMGMRPVPFLEVPPKGRVELKPGGYHFMLLGLKRPLKAGEEVELDLLFAGGKVLKVVLPVEAR,soluble
10,MLLIDKGHDIYKRNCPILQKKIEKCPPPAGKKDYAGCVPACSITNGFGGAGAYSDGKFNITSEFGGWMTDYLPASTVLELIRYVDEINLKHGATTSITDPMTDKVKEIERRAYAAGLKLLRAYVRHLGTEQNLAILQSIFEYLRERITMRFKTEVDDIVTERTEDGHEVKGVVLKNGETLTAEKVVIAPGRDGSVWLSKLLRKRRLRMINNQVDIGVRVETSNIVMQEINEHLYEGKFIFNTSVGTQVRTFCSNPSGHVVVENHSGIMLANGHAYKDPKLGSSNTNFALLVSHKFADPFDKPNEYAHEISRLANALSNGGIIVQKYGDILKGRRSTEKRIKEGFIEPTLKEAVPGDLGLVLPYNTMKSLIEMTEALNHVTPGLASEHTLFYGVEAKFYSARPKLNDRFETEIAGLYVGGDGAGITRGLAQASACGVWIARDIVEKLTRLEHHHHHH,not soluble
11,MVMKLIKRSLLLLGAVLLITLPAYSQNDDIFEDDIYTSRKEIRKQNQVKDWQNQEDGYGDDTEYTVASDRDIDAYNRRDGQSYDGKKLSKDKKRDSTRSSVPGRYSRRLARFYKPNTIVISGADNVYVTDDGEYFVYGDEYYDDASSVNIYINSPWCDPFPYTSWYPSFSGWYNYTWNYPWFYYGSHIGWGGYYPGYNWYWSYYYDPFYNPYGIGMGWGYPYGWGSYYGWGGYPGVIHHYHHYPKKTYSNGQHSGAYYSYGRPNRIKGGTSGAKLGTGRYDRIQNSSSQKNKFGLQSNKPNNNLQNVKSGRTGRANRDRNIETVTPNNGQKQNRPVFQQNQSGNDRPTGRNIRSERQGENNDRTFSTPSRSNSNGGFSTPSRSSSGSMSGGGGRSGRGRN,not soluble
12,MGSDKIHHHHHHVSLSFDFSPDFNPLAARMRPASVEEYIGQSHLLGEGKPLRQALLAGKVHSMLLWGPPGTGKTTLAELVARYANAHVERISAVTSGVKEIRAAIEQAKNVAQSRGQRTLLFVDEVHRFNKSQQDAFLPFIEDGTVIFIGATTENPSFEVNNALLSRCRVYLIKRLEDDAIGQILAQANSDEARGLGKRGLLLKAELKSAIARLCDGDARKALNLLELMSDLLPDGGEYNLELLSEVAGHQAAGYDKNGDQYYDLISAVHKSIRGSAPDAALYWFCRILEGGGDPLYVARRLLAIASEDIGNADPNAMTVALNAWDCFHRVGPAEGERAIAQAVIYLASAPKSNAVYTAFKAARVLARETGNAPVPNHLRNAPTKLMSELGVGEGYRYAHDEDGAFAAGENYFPEVLQHSRIYQPTARGFEKRIRDKLAHLDALNQQSGRKRYE,not soluble
13,MKTITETLNLAPKGKNFLTADWPAPANVKTLITTRNGGVSQGAYQSLNLGTHVGDNPEAVRRNREIVQQQVGLPVAYLNQIHSTVVVNAAEALGGTPDADASVDDTGKVACAVMTADCLPVLFCDRAGTAVAAAHAGWRGLAGGVLQNTIAAMKVPPVEMMAYLGPAISADAFEVGQDVFDAFCTPMPEAATAFEGIGSGKFLADLYALARLILKREGVGGVYGGTHCTVLERDTFFSYRRDGATGRMASLIWLDGNAV,soluble
14,MAHHHHHHMPRALRYCRPRRDPDESLLAYLSTKFTYLADAQWRQHIAAGDISVNGETLTDGSYVLRQGDMLRFAPPRSLEPPVDSEHIEVLYEDSTLLVVTKNGNLPVAEGGRYCENTLVEVLRRRGTAAFYTASTRTSFGTTHEDTEKVSDSPTHAGEIVETAARAEGSTAMDASGKGAEIPTSPPSRRRLEDGSHGIFAVGSAPCASVPSPKASTVQQRSSLDLFTVQRLDKETSGVVVLAKNSVSARTLASQLEAQTKGCADAVESRLRERGHAVALSSDAFDELLRLKAQSVHKTYTAVLRGAAPEDHTFVVVNCMDCMAKHPTHSWEAQHTQLKKLKMCCEPVKEMLFSHAAAALPQSPKEQQTRWGRLAVTRIRVLASNKKLGLTCVQVELLTGRSHQIRLHCAAVGYPVLGDKLYTTMTPGREGGATAVSDAVYLERVRREDDPYLPIDDDVSGAGGSSRSGKMWCRRHLLHATRIIFAHPDVSPARLMTFMASPAPFFTADVRFECEEDSLLFSQWLTRAVSRPLERAEASQS,not soluble
15,MSLARVELHVHLDGAVGVEELYNISVKRRLQLPGGVKSAAELQAYIIRISPAWHRFDVVNDIIGGDEAVIRDVAEGFVGRQARAGIVYTEVRYDPERLSRSGLANVSISRQAAVRAVRDGLRVGAEKHGVVAYQILCAMRGKSAEQCMATATLAAQMRSTSMGGVVGLDLAGDEVTYRNAPYVGCLRYAKRDLRLNITVHSGEFTETPADEVRSAVVDMGADRVGHGYAAVRNAATLSLVKERLIHVEACPRSAQLHGDLDALDEYRRAQLNFGLNTDDPSVFFGNGTIALDEAIVQDVLHYSVDEVRNAYANALSAAFGPTSAIPGLLRGSAPIVVEGHHHHHH,soluble
16,AASWSHPQFEKGAETAVPNSGGGELFATHCAGCHPQGGNTVHPEKTLARARREANGIRTVRDVAAYIRNPGPGMPAFGEAMIPPADALKIGEYVVASFP,soluble
17,MGSDKIHHHHHHMRNRREVSKLLSERVLLLDGAYGTEFMKYGYDDLPEELNIKAPDVVLKVHRSYIESGSDVILTNTFGATRMKLRKHGLEDKLDPIVRNAVRIARRAAGEKLVFGDIGPTGELPYPLGSTLFEEFYENFRETVEIMVEEGVDGIIFETFSDILELKAAVLAAREVSRDVFLIAHMTFDEKGRSLTGTDPANFAITFDELDIDALGINCSLGPEEILPIFQELSQYTDKFLVVEPNAGKPIVENGKTVYPLKPHDFAVHIDSYYELGVNIFGGCCGTTPEHVKLFRKVLGNRKPLQRKKKRIFAVSSPSKLVTFDHFVVIGERINPAGRKKLWAEMQKGNEEIVIKEAKTQVEKGAEVLDVNFGIESQIDVRYVEKIVQTLPYVSNVPLSLDIQNVDLTERALRAYPGRSLFNSAKVDEEELEMKINLLKKYGGTLIVLLMGKDVPKSFEERKEYFEKALKILERHDFSDRVIFDPGVLPLGAEGKPVEVLKTIEFISSKGFNTTVGLSNLSFGLPDRSYYNTAFLVLGISKGLSSAIMNPLDETLMKTLNATLVILEKKELPRAEVKEEKLVEIILSGNRSELEKLVEDFLKEKDPLSVIEEHLRPAMERIGELYDKGKIFLPQLILAAQTVKPVFDKLTSMLPSDSQGETFVIATVKGDVHDIGKNIVASVIRSSGYRVVDLGKDVDTSEIVEAVEKERPVALGLSAMMTTTVGRIKEVVEKLKEKNLKIPVIVGGASLNEKLAKELGADYYAKNASEAVKILKSLGR,not soluble
18,MNSTHHYEQLIEIFNSCFADDFNTRLIKGDDEPIYLPADAEVPYNRIVFAHGFYASAIHEISHWCIAGKARRELVDFGYWYCPDGRDAQTQSQFEDVEVKPQALDWLFCVAAGYPFNVSCDNLEGDFEPDRVVFQRRVHAQVMDYLTNGIPERPARFIKALQNYYHTPELTAEQFPWPEALN,not soluble
19,GSHMIDVPIPRFAVGIVIGRNGEMIKKIQNDAGVRIQFKPDDGTTPERIAQITGPPDRAQHAAEIITDLLRSVQAGNPGGPGPGGRGRGRGQGNWNMGPPGGLQEFNFIVPTGKTGLIIGKGGETIKSISQQSGARIELQRNPPPNADPNMKLFTIRGTPQQIDYARQLIEEKI,soluble
